Square brackets hold non-standard residues; d marks the D form. Phe(3-F) = N[C@@H](Cc1cccc(F)c1)C(=O)O; Phe(4-F) = N[C@@H](Cc1ccc(F)cc1)C(=O)O; 1Nal = N[C@@H](Cc1cccc2ccccc12)C(=O)O; 2Nal = N[C@@H](Cc1ccc2ccccc2c1)C(=O)O; hPhe = N[C@@H](CCc1ccccc1)C(=O)O; Tic = O=C(O)[C@@H]1Cc2ccccc2CN1; Cha = N[C@@H](CC1CCCCC1)C(=O)O; Abu = CC[C@H](N)C(=O)O

For assay [1], the target named is Cyclin A (Homo sapiens, UniProt P20248). The experiment in a line: Cyclin A binding assay, immobilised biotinyl-Ahx-[…]NH2. Particulars: relative to H-His-Ala-Lys-Arg-Arg-Leu-Ile-Phe-NH2 (=1). As to the method: This was added to each well (100 μL). The plate was incubated for 1 h at room temperature with constant shaking. The plate was washed once quickly with TBS/BSA buffer (200 μL), followed by three more washes with TBS/BSA buffer (200 μL) for 5 min each. Serial dilutions of test peptides were prepared in a new plate (50 μL in each well). Cyclin A was diluted to 5 μg/50 μL with TBS/BSA buffer and this was then added to each well (50 μL). The solutions were mixed thoroughly with a pipette (5-6 times), before being incubated for 30 min at room temperature. This reaction mixture was then transferred to the biotinylated peptide: streptavidin-coated plate and incubated for 1 h at room temperature with constant shaking. The plate was washed once quickly with TBS/BSA buffer (200 μL), followed by three more washes with TBS/BSA buffer (200 μL) for 5 min each. The cyclin A antibody (Santa Cruz polyclonal) solution was diluted 1:200 with TBS/BSA buffer and this was then added to each well of the plate (100 μL. The plate was incubated for 1 h at room temperature with constant shaking. The plate was washed once quickly with TBS/BSA buffer (200 μl), followed by three more washes with TBS/BSA buffer (200 μL) for 5 min each. The anti-rabbit secondary antibody (goat anti-rabbit IgG peroxidase conjugate) was diluted 1:10,000 with TBS/BSA and this was then added to each well of the plate (100 μL). The plate was incubated for 1 h at room temperature with constant shaking. The plate was washed once quickly with TBS/BSA buffer (200 μL), followed by three more washes with TBS/BSA buffer (200 μL) for 5 min each. To each well was added the TMB-ELISA reagent (Pierce 1-Step™ Turbo TMB-ELISA; 100 μL) and the plate incubated for 1 min with constant shaking. The reaction was then quenched by the addition of 2 M aqueous H2SO4 (100 μL, each well). The UV absorbance of the each solution was measured spectrophotometrically at 450 nm. IC50 values were calculated from dose-response curves.
Chain of Cyclin A (P20248 whole entry): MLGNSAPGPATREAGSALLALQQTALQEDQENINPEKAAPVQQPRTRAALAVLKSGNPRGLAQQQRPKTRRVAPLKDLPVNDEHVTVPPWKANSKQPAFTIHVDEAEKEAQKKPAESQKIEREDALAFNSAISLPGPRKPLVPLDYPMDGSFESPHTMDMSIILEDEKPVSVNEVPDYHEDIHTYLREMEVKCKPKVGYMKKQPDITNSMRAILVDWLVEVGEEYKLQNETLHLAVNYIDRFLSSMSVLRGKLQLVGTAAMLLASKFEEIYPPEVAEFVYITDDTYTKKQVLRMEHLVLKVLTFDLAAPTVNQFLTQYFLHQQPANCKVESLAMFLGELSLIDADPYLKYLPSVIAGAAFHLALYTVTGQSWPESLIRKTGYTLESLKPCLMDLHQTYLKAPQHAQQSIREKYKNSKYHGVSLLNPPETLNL

Assay [2] concerns the target CDK2/cyclin A (Homo sapiens, UniProt P20248). The experiment in a line: CDK2/cyclin A kinase assay, substrate pRb(773-928). It is filed as biochemical. Particulars: relative to H-His-Ala-Lys-Arg-Arg-Leu-Ile-Phe-NH2 (=1), pRb substrate, [ATP] = 100 μM. From the text: Reactions were stopped on ice, followed by filtration through p81 filterplates (Whatman Polyfiltronics, Kent, UK).

For the substance “H-His-Abu-Lys-Arg-Arg-Leu-Ile Phe-NH2 (H-H[Abu]KRRLIF-NH2; SMILES CC[C@H](NC(=O)[C@@H](N)Cc1c[nH]cn1)C(=O)N[C@@H](CCCCN)C(=O)N[C@@H](CCCNC(=N)N)C(=O)N[C@@H](CCCNC(=N)N)C(=O)N[C@@H](CC(C)C)C(=O)N[C@H](C(=O)N[C@@H](Cc1ccccc1)C(N)=O)[C@@H](C)CC)”, in assay [1] (Ala153 substitutions), the “Relative activity Cyclin A Binding” value was 1.3. The “Relative activity Kinase Inhibition” value in assay [2] (Ala153 substitutions) was 5.

“H-His-Ala-Abu-Arg-Arg-Leu-Ile Phe-NH2 (H-HA[Abu]RRLIF-NH2; SMILES CC[C@H](NC(=O)[C@H](C)NC(=O)[C@@H](N)Cc1c[nH]cn1)C(=O)N[C@@H](CCCNC(=N)N)C(=O)N[C@@H](CCCNC(=N)N)C(=O)N[C@@H](CC(C)C)C(=O)N[C@H](C(=O)N[C@@H](Cc1ccccc1)C(N)=O)[C@@H](C)CC)”: in assay [1] (Lys154 substitutions), the “Relative activity Cyclin A Binding” value stood at 0.2. The “Relative activity Kinase Inhibition” value in assay [2] (Lys154 substitutions) is 0.8.

In the case of “H-His-Ala-Ala-Arg-Arg-Leu-Ile Phe-NH2 (H-HAARRLIF-NH2)”, the “Relative activity Cyclin A Binding” value in assay [1] (Lys154 substitutions) amounted to 0.5. Besides, in assay [2] (Lys154 substitutions), the “Relative activity Kinase Inhibition” value is less than 0.1.

With “H-His-Ala-Arg-Arg-Arg-Leu-Ile Phe-NH2 (H-HARRRLIF-NH2)”, the “Relative activity Cyclin A Binding” value in assay [1] (Lys154 substitutions) is 1.5. Also, the “Relative activity Kinase Inhibition” value in assay [2] (Lys154 substitutions) is 5.7.

For the substance “H-His-Ala-Leu-Arg-Arg-Leu-Ile Phe-NH2 (H-HALRRLIF-NH2)”, the “Relative activity Cyclin A Binding” value in assay [1] (Lys154 substitutions) was 1.4. Besides, the “Relative activity Kinase Inhibition” value in assay [2] (Lys154 substitutions) was 0.1.

With “H-His-Ala-Lys-Ala-Arg-Leu-Ile Phe-NH2 (H-HAKARLIF-NH2)”, in assay [1] (Arg155 substitutions), the “Relative activity Cyclin A Binding” value is reported as less than 0.1. The “Relative activity Kinase Inhibition” value in assay [2] (Arg155 substitutions) was less than 0.1.

On to “H-His-Ala-Lys-Arg-Ala-Leu-Ile Phe-NH2 (H-HAKRALIF-NH2)”, for which the “Relative activity Cyclin A Binding” value in assay [1] (Arg156 substitutions) was less than 0.1. In assay [2] (Arg156 substitutions), the “Relative activity Kinase Inhibition” value is less than 0.1.

Take “H-His-Ala-Lys-Arg-Arg-1Nap-Ile Phe-NH2 (H-HAKRR[1Nal]IF-NH2; SMILES CC[C@H](C)[C@H](NC(=O)[C@H](Cc1cccc2ccccc12)NC(=O)[C@H](CCCNC(=N)N)NC(=O)[C@H](CCCNC(=N)N)NC(=O)[C@H](CCCCN)NC(=O)[C@H](C)NC(=O)[C@@H](N)Cc1c[nH]cn1)C(=O)N[C@@H](Cc1ccccc1)C(N)=O)”: in assay [1] (Leu157 substitutions), the “Relative activity Cyclin A Binding” value is given as less than 0.1. Moreover, in assay [2] (Leu157 substitutions), the “Relative activity Kinase Inhibition” value is less than 0.1.

As for “H-His-Ala-Lys-Arg-Arg-Cha-Ile Phe-NH2 (H-HAKRR[Cha]IF-NH2; SMILES CC[C@H](C)[C@H](NC(=O)[C@H](CC1CCCCC1)NC(=O)[C@H](CCCNC(=N)N)NC(=O)[C@H](CCCNC(=N)N)NC(=O)[C@H](CCCCN)NC(=O)[C@H](C)NC(=O)[C@@H](N)Cc1c[nH]cn1)C(=O)N[C@@H](Cc1ccccc1)C(N)=O)”, the “Relative activity Cyclin A Binding” value in assay [1] (Leu157 substitutions) is recorded as less than 0.1. Also, in assay [2] (Leu157 substitutions), the “Relative activity Kinase Inhibition” value is listed as less than 0.1.

As to “H-His-Ala-Lys-Arg-Arg-Leu-1Nap-Phe-NH2 (H-HAKRRL[1Nal]F-NH2; SMILES CC(C)C[C@H](NC(=O)[C@H](CCCNC(=N)N)NC(=O)[C@H](CCCNC(=N)N)NC(=O)[C@H](CCCCN)NC(=O)[C@H](C)NC(=O)[C@@H](N)Cc1c[nH]cn1)C(=O)N[C@@H](Cc1cccc2ccccc12)C(=O)N[C@@H](Cc1ccccc1)C(N)=O)”, in assay [1] (Ile158 substitutions), the “Relative activity Cyclin A Binding” value amounted to 0.5. The “Relative activity Kinase Inhibition” value in assay [2] (Ile158 substitutions) stood at 0.5.

As for “H-His-Ala-Lys-Arg-Arg-Leu-Cha-Phe-NH2 (H-HAKRRL[Cha]F-NH2; SMILES CC(C)C[C@H](NC(=O)[C@H](CCCNC(=N)N)NC(=O)[C@H](CCCNC(=N)N)NC(=O)[C@H](CCCCN)NC(=O)[C@H](C)NC(=O)[C@@H](N)Cc1c[nH]cn1)C(=O)N[C@@H](CC1CCCCC1)C(=O)N[C@@H](Cc1ccccc1)C(N)=O)”, the “Relative activity Cyclin A Binding” value in assay [1] (Ile158 substitutions) turned out to be 0.5. For the same substance, in assay [2] (Ile158 substitutions), the “Relative activity Kinase Inhibition” value is 0.3.

“H-His-Ala-Lys-Arg-Arg-Leu-Ile-1Nap-NH2 (H-HAKRRLI[1Nal]-NH2; SMILES CC[C@H](C)[C@H](NC(=O)[C@H](CC(C)C)NC(=O)[C@H](CCCNC(=N)N)NC(=O)[C@H](CCCNC(=N)N)NC(=O)[C@H](CCCCN)NC(=O)[C@H](C)NC(=O)[C@@H](N)Cc1c[nH]cn1)C(=O)N[C@@H](Cc1cccc2ccccc12)C(N)=O)”: the “Relative activity Cyclin A Binding” value in assay [1] (Phe159 substitutions) is less than 0.1. For the same substance, the “Relative activity Kinase Inhibition” value in assay [2] (Phe159 substitutions) was determined as 0.2.

With “H-His-Ala-Lys-Arg-Arg-Leu-Ile-2Nap-NH2 (H-HAKRRLI[2Nal]-NH2; SMILES CC[C@H](C)[C@H](NC(=O)[C@H](CC(C)C)NC(=O)[C@H](CCCNC(=N)N)NC(=O)[C@H](CCCNC(=N)N)NC(=O)[C@H](CCCCN)NC(=O)[C@H](C)NC(=O)[C@@H](N)Cc1c[nH]cn1)C(=O)N[C@@H](Cc1ccc2ccccc2c1)C(N)=O)”, the “Relative activity Cyclin A Binding” value in assay [1] (Phe159 substitutions) was 0.7. In assay [2] (Phe159 substitutions), the “Relative activity Kinase Inhibition” value is 1.2.

Take “H-His-Ala-Lys-Arg-Arg-Leu-Ile-Cha-NH2 (H-HAKRRLI[Cha]-NH2; SMILES CC[C@H](C)[C@H](NC(=O)[C@H](CC(C)C)NC(=O)[C@H](CCCNC(=N)N)NC(=O)[C@H](CCCNC(=N)N)NC(=O)[C@H](CCCCN)NC(=O)[C@H](C)NC(=O)[C@@H](N)Cc1c[nH]cn1)C(=O)N[C@@H](CC1CCCCC1)C(N)=O)”: in assay [1] (Phe159 substitutions), the “Relative activity Cyclin A Binding” value is less than 0.1. The “Relative activity Kinase Inhibition” value in assay [2] (Phe159 substitutions) is less than 0.1.

Consider “H-His-Ala-Lys-Arg-Arg-Leu-Ile-Hof-NH2 (H-HAKRRLI[hPhe]-NH2; SMILES CC[C@H](C)[C@H](NC(=O)[C@H](CC(C)C)NC(=O)[C@H](CCCNC(=N)N)NC(=O)[C@H](CCCNC(=N)N)NC(=O)[C@H](CCCCN)NC(=O)[C@H](C)NC(=O)[C@@H](N)Cc1c[nH]cn1)C(=O)N[C@@H](CCc1ccccc1)C(N)=O)”, for which the “Relative activity Cyclin A Binding” value in assay [1] (Phe159 substitutions) is recorded as less than 0.1. In assay [2] (Phe159 substitutions), the “Relative activity Kinase Inhibition” value was less than 0.1.

For “H-His-Ala-Lys-Arg-Arg-Leu-Ile-Tic-NH2 (H-HAKRRLI[Tic]-NH2; SMILES CC[C@H](C)[C@H](NC(=O)[C@H](CC(C)C)NC(=O)[C@H](CCCNC(=N)N)NC(=O)[C@H](CCCNC(=N)N)NC(=O)[C@H](CCCCN)NC(=O)[C@H](C)NC(=O)[C@@H](N)Cc1c[nH]cn1)C(=O)N1Cc2ccccc2C[C@H]1C(N)=O)”, the “Relative activity Cyclin A Binding” value in assay [1] (Phe159 substitutions) was less than 0.1. The “Relative activity Kinase Inhibition” value in assay [2] (Phe159 substitutions) was 0.3.

Turning to “H-His-Ala-Lys-Arg-Arg-Leu-Ile-mFPhe-NH2 (H-HAKRRLI[Phe(3-F)]-NH2; SMILES CC[C@H](C)[C@H](NC(=O)[C@H](CC(C)C)NC(=O)[C@H](CCCNC(=N)N)NC(=O)[C@H](CCCNC(=N)N)NC(=O)[C@H](CCCCN)NC(=O)[C@H](C)NC(=O)[C@@H](N)Cc1c[nH]cn1)C(=O)N[C@@H](Cc1cccc(F)c1)C(N)=O)”, the “Relative activity Cyclin A Binding” value in assay [1] (Phe159 substitutions) is reported as 0.8. Further, the “Relative activity Kinase Inhibition” value in assay [2] (Phe159 substitutions) turned out to be 0.8.

With “H-His-Ala-Lys-Arg-Arg-Leu-Ile-pFPhe-NH2 (H-HAKRRLI[Phe(4-F)]-NH2; SMILES CC[C@H](C)[C@H](NC(=O)[C@H](CC(C)C)NC(=O)[C@H](CCCNC(=N)N)NC(=O)[C@H](CCCNC(=N)N)NC(=O)[C@H](CCCCN)NC(=O)[C@H](C)NC(=O)[C@@H](N)Cc1c[nH]cn1)C(=O)N[C@@H](Cc1ccc(F)cc1)C(N)=O)”, the “Relative activity Cyclin A Binding” value in assay [1] (Phe159 substitutions) came out at 5. Further, the “Relative activity Kinase Inhibition” value in assay [2] (Phe159 substitutions) turned out to be 1.
